# Patent publication US20260069707A1, “COMBINATION THERAPY WITH ANTIBODY-DRUG CONJUGATES AND HYALURONIDASES” (HALOZYME, INC., priority 2024, published 2026)
# Like-named read-outs stand apart in the source and are kept apart here. Marks after values point to notes of the source that are not given here.
# Settings: pig, in vivo
# Description: Serum concentrations of total ADC, total antibody and Free Payload (unconjugated SN38) were determined in three separate assays conducted by PPD.
# A 20.0-μL sample aliquot was diluted 10-fold. A portion of the diluted sample was taken and processed using an immunoaffinity approach. SMART Digest IA magnetic beads coated with anti-human Fc antibody were used to enrich Trodelvy from matrix. The bound proteins were subjected to “on-bead” proteolysis with trypsin. […] After trypsin digestion, the proteins were further subjected to acidic conditions to release SN-38 from the antibody, which was used for Total ADC quantitation. The following sequences in Table 49 were selected for monitoring in the assay:
# VVSV was used for the quantitation of Total Antibody concentrations, DSTY was used for the quantitation of Intact Antibody (trouble shooting purposes only), and SN-38 was used for quantitating Total ADC concentrations.
# A nominal unconjugated SN-38, concentration range of […] was chosen to quantitate samples. This assay requires a 50.0 μL porcine serum aliquot. Samples were kept frozen at −80° C. prior to analysis.
# A matrix aliquot was fortified with internal standard. Analytes were isolated through protein precipitation. The eluate was evaporated under a nitrogen stream, and the remaining residue reconstituted. Final extracts were analyzed via HPLC MS/MS detection using positive ion electrospray.
# Therefore, nominal time points were used for PK analyses. To estimate the serum concentration at time zero for intravenous (IV) data, a second-order polynomial regression was applied to the early serum time points (0.25, 1, and 2 hours). The intercept of the fitted polynomial curve was used as the extrapolated concentration at time zero. Skin concentration data (μg/mL) was normalized to total protein (mg/mL) per sample, resulting in values represented as μg/mg protein.
# Pharmacokinetic parameters were calculated using noncompartmental methods performed in Microsoft Excel. The area under the concentration-time curve (AUC) was determined using the linear trapezoidal rule. For serum data, AUC0-7 was calculated using all available time points. For skin data, AUC1-7 was computed based on the three available time point measurements. The maximum observed concentration (Cmax) was identified directly from the dataset, and the time at which it occurred (Tmax) was recorded. All calculations were performed using Microsoft Excel.
# Quantitation of total antibody, total ADC, and free payload (SN-38) from Trodelvy in porcine serum and tissue samples was performed via HPLC with MS/MS detection.
substance,measurement,setting,value
Sacituzumab govitecan [Trodelvy],"Relative difference in serum AUC0-7, Free Payload",,59%
same,"Relative difference in serum AUC0-7, TAB",,76%
same,"Relative difference in serum AUC0-7, TADC",,34%
same,"Relative difference in serum Cmax, Free Payload",,38%
same,"Relative difference in serum Cmax, TAB",,44%
same,"Relative difference in serum Cmax, TADC",,13%
same,"TADC/Free Payload, Tmax",50 mg,100%
same,"TADC/TAB, Tmax",50 mg,33%
same,AUC0-7 of free payload,iv,0.1252 µg·days/mL
same,AUC0-7 of total ADC (TADC),iv,41.44 µg·days/mL
same,AUC0-7 of total antibody (TAB),iv,193.05 µg·days/mL
same,Cmax of free payload,iv,95.3 ng/mL
same,Cmax of total ADC (TADC),iv,60550 ng/mL
same,Cmax of total antibody (TAB),iv,57600 ng/mL
same,Tmax of free payload,iv,0 h
same,Tmax of total ADC (TADC),iv,0 h
same,Tmax of total antibody (TAB),iv,0 h
same,Total ADC Result,"iv, 50 mg, 6 h",43.9 µg/mL
same,Total ADC Result,"iv, 50 mg, 24 h",10 µg/mL
same,Total ADC Result,"iv, 50 mg, 48 h",2.27 µg/mL
same,Total ADC Result,"iv, 50 mg, 72 h",0.751 µg/mL
same,Total ADC Result,"iv, 50 mg, 96 h",<0.500 µg/mL
same,Total ADC Result,"iv, 50 mg, 168 h",0.1 µg/mL
same,serum concentration of total ADC (TADC),"iv, 6 h",43.90 µg/mL
same,serum concentration of total ADC (TADC),"iv, 24 h",10.00 µg/mL
same,serum concentration of total ADC (TADC),"iv, 48 h",2.27 µg/mL
same,serum concentration of total ADC (TADC),"iv, 72 h",0.75 µg/mL
same,serum concentration of total ADC (TADC),"iv, 96 h",<0.50^b μg/mL
same,serum concentration of total ADC (TADC),"iv, 168 h",0.10 µg/mL
same,Tmax of free payload,sc,24 h
same,serum concentration of total ADC (TADC),"sc, 0 h",<0.10^b μg/mL
same,serum concentration of total ADC (TADC),"sc, 6 h",4.96 µg/mL
same,serum concentration of total ADC (TADC),"sc, 24 h",7.87 µg/mL
same,serum concentration of total ADC (TADC),"sc, 48 h",2.77 µg/mL
same,serum concentration of total ADC (TADC),"sc, 72 h",1.00 µg/mL
same,serum concentration of total ADC (TADC),"sc, 168 h",0.13 µg/mL
